Test results from the DeepSol protein solubility set.

Assay: soluble on expression in E. coli; label from the status in PepcDB or PDB records
In the case of “MPLEASELKPTAGPLEASELKPTAGPLEASELKPTAGPLEASELKPTAGPLEASELKPTAGPLEASELKPTAGPLEASELKPTAGMYAFKAVKQYFYPSDNLKVLMHKFTDMVNFTINIMIEKNLTSRNSVSNEVYHKLKEYEIPSYYYIEAINKAVALVKTYRKRLKKKQKATVPHVEKPMLSTYYGFKIVGGNLMIPIANREYESIPLNAYVRDATSMVKVHSFALSAYTLSLTIGRDVDAIECTTTVGVDRNLRNATVGNEFHHEIYDLSNVVEIKQRYRKKESHFHRNDRRIREKILSKYGKRERNRVKQIMHETSKAIVSNASTRKEMIVLENIRGINKITKKGDGKGKDYRFLLKNAFPYGMLASQVMYKASWEGLPVIELTRKETRNTSRMCSVCGSLTRIEHGRILKCDSCGLEIDRDVNACINIAFRYRTCLKRSHKGLPGEAVKQSKDVEQMAGSQISTDILEHHHHHH”, the “soluble on expression in E. coli” value is reported as “soluble”. In the case of “GMSESNRQRATGLVQAYYEAFNRGDWDAMLAFLAEDVAHDLNQGPREIGRAAFASFLQRMNDSYREQLRDIVVTANDEGTRVGAEYVVHGVYHTTDEGLPDANGQTYVLPGGAFFDVRDGQITRVTNYYNLQEWIAQVSR”, the “soluble on expression in E. coli” value is reported as “soluble”. In the case of “MKVIAFVGKHNVGKTTLIERLIPKLKEKGYRVCYLKHDPKGHGVTDKEGSDTHRISKLVEKLALLSPNRVTYWEWGEFKPLEIVKRFFSDCDIVILEGFKWEEEIPKISVGKVDAKNVILTVDRETPLEDIIKVIESLEDMV”, the “soluble on expression in E. coli” value is reported as “soluble”. In the case of “MTKTSKASGLSWFFCDLDGTLLRYQNNQHLIEPTTKRAVAQLVESGANFVVATGRKPSDVRNIYKELGIEQASPYLIANNGAVVWDLKRNSYLNKQTLSLSDFDLIDHINQTLNQLNHEYGCILYGLNDQVYFYHIHAPDSQAFKQYFAFYEGEFVQNQYLEIDGLKTEYNLVKAIWFFKEVHQQKAVIAQHFTNQERLVITSAHSFELVPLNVSKGHAINLIKQQVKITDNQIMVLGDSYNDLPMFQHGVVKVTNHLAPDNLKQLATRVYELPASLFVGQALNDYFKFD”, the “soluble on expression in E. coli” value is reported as “not soluble”. With “GAMGKVGVGKKAEAVATVVAAVDQARVREPREPGLPEDSYAQQTTLEYGYKEH” the “soluble on expression in E. coli” value was “soluble”. In the case of “MGLSPGQTSVSFLWPLLEVRDHNTGRGLVPATVLTPGSPETLLELRQAFLGSRQARHGHDAAPSSGQQGCSVDRTAGRPVLGWRLRNSLTGQEGRQHLHLSGIRTSRKAKEYKPVFFGATEISVLMAVAESLREPPPPQWGWFLSSLFLKIF”, the “soluble on expression in E. coli” value is reported as “not soluble”. For “MPMKDISDFAANDPNKDYCVYCSRPDGEMQSFEEKKESLTKFIVKTQGADENVAWKIAENMMHKLPAWKEYFN”, the “soluble on expression in E. coli” value was “not soluble”. For “MNKFHDIFLELEQQIVQGDYQPGDLLPSENQLVETYNVSRETIRKALNLLINAGYIQKKQGKGSIVLNFKKFNFPISGVTSYKELQQTQHIESHTHVVSLEEIPVERNLAQLTGWTEGAPVWRLVRQREIEGEVDILDIDYLIKEIVPELPKHRAEDSIFDYLENDLGLAISYAQKEITVEPLTEMDKQLIGEVEGNHVVVVRSIMNLEDTRCFGYTESRHRLNKFKFVEFARRRKL”, the “soluble on expression in E. coli” value was “not soluble”. For “MIGYLRGLAVIVEDVEFARRLYKEGFYGRFLGYDKVKRDEVEKINAPLILGLYEALYLAEKGRLKVMGEDGREVAPEELAALGRERMRNFDEIYKIYKYFRDLGYVVKSGLKFGALFSVYEKGPGIDHAPMVVVFLEPDKGISATDITRGGRLSHSVRKTWTLATVLRQTGEVVLLGFGWARL”, the “soluble on expression in E. coli” value was “soluble”. With “MSLTPRVNSGGAVVADAYGRPLKDLRIAVTPECNLDCFFCHMEGATESGPMRPGSWSPVLSVEDYDIIGEAASRLGVDSFKLTGGEPLIRGDVDKIVAVLARYGEVSMTTNGILLPLKASSLKRAGLARVNVSLHSISEEVYEKITRRRAVKLALKGVEAALKAGLRVKVNMVLLRGLNEGEFWRLLRLAEDLGFDLQVIEVHPAGRGRKVLSSFRRPIDVVEERLSSMAVAVETGRLHNRRVYRLPSGVRVYLVDPVENPVFCMGCYRVRLTWDGRLLPCIYWKGPYPSVAEALKRGGSREEKVWRVMKILLEANALRRPTYLFRLHDGQEPQAPSTGRGLRLTLPGKAKAERLAYSTLKAPLIEG” the “soluble on expression in E. coli” value was “not soluble”. For “MGSDKIHHHHHHMKRPPKKPATDRSFVVALSRGLEVLRAFGPNDGLLGNQELAARTKLPKPTISRLTYTLTKLGYLTQVPRFEKYQLAPAAMSLGYAALANLGVRHLSQPYRDELMQQTGGAVAVGARDRISMIYVGQARSSLTVGVQLDVGSRIPIATTAMGRAYLCALQSEERAVLMKEMREYYGSRWPRIKEGIERSEEMVAKHGFAISVGEWQDDVHAAGVALTLNDGTGPYAFNCGAPAFRFTEERLINDIGPRLVAMVRKIEAALGGVAAPQPRKSDNKRTKGGKVARVVEGIR”, the “soluble on expression in E. coli” value was “not soluble”. With “MRDFGEILAENRKKKGYSQSDLVNLLSQEGIQVTTKALSKWENNAREPALHVFLTLCQLLDIEDIYESFFGENPYNIMSGLNEEGRNKLIEFADILKASKKFSPLSAKIIPFHHPVEITWEPVSAGTGNYLEDSVKETYDVGHLAPEQTDFGVRISGDSMEPLYHTDDVAWIQKKDSLANGEIGIFYLNGNTYIKELHDEPDGVYLISLNQKYRPIQVLESDSFKIFGKVIGKCKGAEIPGFHLEHHHHHH” the “soluble on expression in E. coli” value was “soluble”. For “MGHHHHHHSHMSRRKQGKPQHLSKREFSPEPLEAILTDDEPDHGPLGAPEGDHDLLTCGQCQMNFPLGDILIFIEHKRKQCNGSLCLEKAVDKPPSPSPIEMKKASNPVEVGIQVTPEDDDCLSTSSRRICPKQEHIADKLLHWRGLSSPRSAHGALIPTPGMSAEYAPQGICKDEPSSYTCTTCKQPFTSAWFLLQHAQNTHGLRIYLESEHGSPLTPRVLHTPPFGVVPRELKMCGSFRMEAREPLSSEKI”, the “soluble on expression in E. coli” value was “not soluble”. In the case of “WNHDEEARGSVRWRTLFDTALTSENVILYAQSVHSISDATHKKALHEELTCRIRDPENGIVKASRFISAIRQVGYEAQMDRAVLHKFLKDFKENFDSSKNYALNLNVTPFSSREYFKWFRDELLQLSREQRKCLNFEFVEAQFVRHLDFMRPVAKMLAGLGCHLMVGQAGRTIVSTHYLKEVDIRYLKLHRSLVAKIDQRHENQLFVRSMLGAAANSKTKIIAVGIENQQELNTLLELGVYGGQGRYFSAE”, the “soluble on expression in E. coli” value is reported as “not soluble”. For “AHHHHHHGSERAFIEWYPRGYGVAFKIKKKIYEKLSKYQKIEVYETEGFGRLLALDGTVQLVTLGERSYHEPLVHPAMLAHPKPKRVLVIGGGDGGTVREVLQHDVDEVIMVEIDEDVIMVSKDLIKIDNGLLEAMLNGKHEKAKLTIGDGFEFIKNNRGFDVIIADSTDPVGPAKVLFSEEFYRYVYDALNNPGIYVTQAGSVYLFTDELISAYKEMKKVFDRVYYYSFPVIGYASPWAFLVGVKGDIDFTKIDRERAKKLQLEYYDPLMHETLFQMPKYIRETLQRL”, the “soluble on expression in E. coli” value was “soluble”. With “MGSDKIHHHHHHMTWNLAGSYSETCSCELMCPCNMSFDHGATYDFCRVTLAFNVHEGSVEGTDIAGRKVVLIADTPKVMTDGNWRVGVFVDDGASEEQFDKLVQVFGGQLGGPMAGLAPLIGEMLGVQRAAIDIEDDGLLHSVRVGDEIDFQIQDIVPFGVETGEPVRFAGMFHPVGSDLVMAEAKRTRINAFGITYEGKTGLSKSSFTWAA” the “soluble on expression in E. coli” value was “not soluble”. With “MAHHHHHHMEENNQVEKNKGTNQLCFVKMLVNNLVAGSVIGKNGSIITSIENKTGCSLKLSPTNSYFPNTQERVLVLCGKQEQINNALLIILDKIRQITVQSFQDKQNMNTVPKYTCRIVIPKSAASAIIGKGGQQIKQLQDSTGAKIQISSREDGLNERIISIIGPFESISDTAIKVTNSIQNDPNLKDLLNVIYNKDTNMNGRSSLSQNFVNQVPLNGYVVPQQYGVFQHEQYMDVNMMNSLMRHSRDLFNLPCEISIQIPDEFIGSVIGKNGSRLTNIMNSTGAQIRISRKGELIPGTADRKVRIMGTVAAVHGAHVLLLQRLESVYMQLRTMQVKCDA” the “soluble on expression in E. coli” value was “soluble”. In the case of “IGDMAPKANMGWYNSFSYKGFNLGMMLTARLGGLVVSNTQGVLDYYGVSKASADARDAGGVWINNGYVDAKEYYQTIGGSNGGLGQYYTYSATNVRLSELSFSYAFPKKWFNNKVGITAGFVAKNLWMIYCKAPFDPELTASTSSNFYQGVDYFMTPSTRNLGFNVKFQF”, the “soluble on expression in E. coli” value is reported as “not soluble”. With “MGSDKIHHHHHHMQQVFFQETEFLNSVIDYDHKVETENLCLDIAYGTDKNFLFGCGISIASILKYNEGSRLCFHIFTDYFGDDDRKYFDALALQYKTRIKIYLINGDRLRSLPSTKNWTHAIYFRFVIADYFINKAPKVLYLDADIICQGTIEPLINFSFPDDKVAMVVTEGQADWWEKRAHSLGVAGIAKGYFNSGFLLINTAQWAAQQVSARAIAMLNEPEIIKKITHPDQDVLNMLLADKLIFADIKYNTQFSLNYQLKESFINPVTNDTIFIHYIGPTKPWHDWAWDYPVSQAFMEAKNASPWKNTALLKPNNSNQLRYSAKHMLKKHRYLKGFSNYLFYFIEKIKH” the “soluble on expression in E. coli” value was “not soluble”. For “MAAGSEATTPVIVAAGAGGEEGEHVKPFKPEKAKEIIMSLQQPAIFCNMVFDWPARHWNAKYLSQVLHGKQIRFRMGMKSMSTVPQFETTCNYVEATLEEFLTWNCDQSSISGPFRDYDHSKFWAYADYKYFVSLFEDKTDLFQDVKWSDFGFPGRNGQESTLWIGSLGAHTPCHLDSYGCNLVFQVQGRKRWHLFPPEDTPFLYPTRIPYEESSVFSKINVVNPDLKRFPQFRKAQRHAVTLSPGQVLFVPRHWWHYVESIDPVTVSINSWIELEEDHLARVEEAITRMLVCALKTAENPQNTRAWLNPTEVEETSHAVNCCYLNAAVSAFFDRCRTSEVVEIQALRTDGEHMKKEELNVCNHMEVGQTGSQNLTTGTDKPEAASPFGPDLVPVAQRSEEPPSERGGIFGSDGKDFVDKDGEHFGKLHCAKRQQIMSNSENAIEEQIASNTTTTPQTFISTDDLLDCLVNPQVTRIVAQLLIQGRSL”, the “soluble on expression in E. coli” value was “not soluble”. For “MNQEVTAPKEMNQGASNDLLTTSLKNVTRLNTNDPSQMAVLTSQTIWAATHKENQPGAVILVPASEWQLGIASADFIHHPNNGPILFIEKEKIPEMTLKEIKRLNPIGTKDGTQIMVMGDVGTSALEQLKGYKVKQIKETDPAIFAKDVDKEYADITGSYPNSVIIGSSAEEGRLYTTPAVNWISHMPEPLLYTEKNKVPEATIEALKMRKDKANIYVLGPEKIVSKEVEKELSKYGKVTRISGETPTENSIAFAKFKDEKTKFGWGFTKPGHGLSFVSSKTPDLAVAGAPFSHMGKHAPVVLLEEGKASQTVYDFLASIQPKFKDDPTLGPYNHGFLLGNTSDISFETQGILDERLEIVQESGQGHGGH”, the “soluble on expression in E. coli” value was “not soluble”. In the case of “MPNVIGVQFQKAGKLEYYTPNDIQVDIDDWVVVESKRGIEIGIVKNPLMDIAEEDVVLPLKNIIRVADDKDIDKFNCNERDAENALILCKDIVREQGLDMRLVNCEYTLDKSKVIFNFTADDRIDFRKLVKILAQHLKTRIELRQIGVRDEAKLLGGIGPCGRSLCCSTFLGDFEPVSIKMAKDQNLSLNPTKISGACGRLMCCLKYENDYYEEVRAQLPDIGEAIETPDGNGKVVALNILDISMQVKLEGHEQPLEYKLEEIETMHLEHHHHHH”, the “soluble on expression in E. coli” value is reported as “not soluble”. With “MGSDKIHHHHHHMPPRPFDEMTNPDGGIRSPYGLYSDWVNQTPLDVLRQKHAQADVLFRRIGITFAVYGDNQGGERLIPFDVVPRIISKKEWDILSRGVCQRVDALNRFIYDVYHDQEILKAGKVPKGLVRNNGQFRKEMVGFTPPRNLYVQIAGIDIVRTAENEFHVLEDNLRTPSGVSYMLENRDVMTRLFPELFNRHPVAPVNHYAQELLKTLQYSAPDHADNPTVVVLTPGQYNSAYFEHAFLADEMGIELVQGQDLFVEGGHVYMRTIAGPQRVDVIYRRIDDDFLDPLAFRKDSMLGVPGLFEAYRSGAVTLANAIGTGIADDKAIYDFVPGMIEFYLGEKPILRNVPTYHLDDDDDRAYVLEHLAELVVKEVHGSGGYGMLVGPRASRQQISDYRDRILADPANFIAQPTLALSTCPTFVDQGLAPRHVDLRPFVLAGKTTQVVPGGLTRVALEKDSLVVNSSQGGGTKDTWVLER” the “soluble on expression in E. coli” value was “not soluble”.
